Test: yeast display, Sf9 membrane polyspecificity reagent, FACS + sequencing; frameworks hold sequencing errors
Method in brief: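 Galactose-induced (36–48 hours) yeast carrying a synthetic nanobody display library were exposed to 10% biotinylated, detergent-solubilized Sf9 membrane reagent at 4 °C for 1 hour. FACS followed streptavidin microbead enrichment, using low and high (top ~1%) gates for expression (anti-HA) and reagent binding (streptavidin). Colony PCR, MiSeq 2 × 250 sequencing and CDR-length filtering followed. Labels for polyreactivity reflect the gate of origin.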

Row | Sequence | polyreactivity (PSR sort gate)
1 | QVQLVESGGGLVQAGGSLRLSCAASGNTFPVYAMGWYRQASGKERELVATITSGGSTNYADSVKGRFTISRDNAKNTVYLQMNSLKPEDTAVYDCARRAVYAKRRYDYWGQGTQVTVSS | low polyreactivity
2 | QVQLVESGGGLVQAGGSLRLSCAASGLIFSTYAMGWYRQAPGKERELVAAITNSGGSTYYADSVKGRFTISRDNAKNTDYLQMNSLKPEDTAVYYCARRRSYRDNYWGQGTQVTVSS | high polyreactivity
3 | QVQLVESCGGLVQAGGSLRLSCAASGGTFGPYAMAWYRQAPGKEREFVARITGSGTRTYYADSVKGRFTISRDNAKNTVYLQMNSLKPEDTAVYYCATSHSRGSRGHDYWGQGTQVTVSS | low polyreactivity
4 | QVQLVESGGGLVQAGGSLRLSCAASGSIFKEYAMGWYRQAPGKERELVATISWSGGSTYYADSVKGRFTISRDNAKNTVYLQMNSLKPEDTAVYYCNKSTPWWYVVRYDYWGQGTQVTVSS | high polyreactivity
5 | QVQLVESGGRLVQAGGSLRLSCAASGFIFPRYTRGWYRQAPGKESELVAGITLRGGSTYYADSVKGRFTISRDNAKNTVYLQMNSLKPEDTAVYYCARGISRGRSFGIGYDYWGQGTQVTVSS | low polyreactivity
6 | QVQLVESGGGLVQAGGSLRLSCAASGSTFGANAMGWYRQAPGKERELVAVITWNDGSTYYADSVKGRFTISRDNAKNTVYLQMNSLKPEDTAVYYCAAEYADSWSAFDWNYYYWVQGTQVTVSS | high polyreactivity
7 | QVQLVESGGALVQAGGSLRLSCAASGLTFTDYAMGWYRPAPGQERELVAGIWDGGSTYYADSVKGRFTISRDNAKNTVYLQMNSLKPEDTAVYYCAAEDWWTSFPEYYYWGQGTQVTVSS | high polyreactivity
8 | QVQLVESGGGLVQAGGSLRLSCAASGRTFRYYAMGWYRQAPGKERELVAAITGSGGSTYYADSVKGRFTISRDTAKNTVYLQMNSLKPEDTAVYYCATRWALRWRGGYWGQGTQVTVSS | high polyreactivity
9 | QVQLVESGGCLVQAGGSLRLTCAASGYIFANNARGWYRQAPGTERELVAAISSSGGRTYYADSVKGRFTISRDNAKNTVYLQMNSLKPEDTAVYYCAAESVDNIYYGFDYWGQGTQVTVSS | high polyreactivity
10 | QVQLVESGGGLVQAGGSLRLSCAASGSTFDYYAMGWYRQTPGKERELVAAISWSGGSTYYADSVKGRFTISRDNAKNTVYLQMNSPKPEDTAVYYCATGTYFPRYKYFEGYYWGQGTQVTVSS | high polyreactivity
11 | QVQLVESGGGLVQAGGSLRLSCAASGRTLSGNAMGWYRPAPGKERELVATITSDGGDTYYADSVKGRFTISRDNPKNTVYLQMNILKPEDTAVYYCNADYAGPKYVGYTFRSFTMDYWGQGTQVTVSS | low polyreactivity
12 | QVQLVESGGGLVQAGGSLRLSCAASGYTFRYNAMGWYRQAPGKERELVATISRGGNTNYADSVKGRFTISRDNAKNPVYLQMISLKAEDTAVYYCAKVWRTFPYYSWGQGTQVTVSS | high polyreactivity
13 | QVQLVESGGGLVQAGGSLRLSCAASGRIFNAYAMGWYRQAPGKERELVATITGSGGRTHYADSVKGRFTISRDNAKNTVYLQMNSLKPEDTAVYYCAATAQYYHYHLAKYDYWGQGTQVTVSS | low polyreactivity
14 | QVQLVESGGGLVQAGGSLRLSCAASGLIFPKYAMGWYRQAPGNEREFVAAISGRGGTTYYADSVKGRFTISRDNAKNTVYLQMNSLKPEDTAVYYCAAGGPWANIYGNGYWGQGTQVTVSS | high polyreactivity
15 | QVQLVESGGGLVQAGGSLRLSCAASGSTFVGYAMVWYRQAPGKERELVAAISYSGGSTYYADSVKGRFTISRDNAKNTVYLQMNSLKPEDTAVYYCAAEWSRHYYSGPRYDSWGQGSQVTVSS | low polyreactivity
16 | QVQLVESGGGLVQAGGSLRLSCAASGSTFIANTMGWYRQAPGKERELVAAITDSGGSTYYADSVKGRFTISRDNAKNTVYLQMNSLKPEDTAVYYCNADYVYVFIRAWSYDYWGQGTQVTVSS | low polyreactivity
17 | QVQLVESGGGLVQAGGSLRLSCAASGRIIGRYAMGWYRPAPGKERELVAAISSSGSTYYADSVKGRFTISRDNAKNTVYLQMNSLKPEDTAVYYSAAYYRGRAYISYGYWGQGTQVTVSS | high polyreactivity
18 | QVQLVESAGGLVQAGGSLSLSCAASGSMFIYNAMGWYRQAPGKERELVATISSGGSTTYADSVKGRFTISRDNAKNTVYLQMNSLKPEDTAVYYCATDDPPDQYFYLGYYYWGANDYWGQGTQVTVSS | low polyreactivity
19 | QVQLLESGGGLVQAGGSLRLSCAASGSIFRYNDMGWYRKAPGKETELVATITSGTNTYYADSVKGRFTISRDNAQNTVYLQMNRLKPEDTAVYYCAKSYNAWDGRTFEEMNYWGQGTQVTVSS | low polyreactivity
20 | QVQLVESGGGLVQAGGSLRLSCAASGIIFRYYAMGWYRPAPGKERELVAAISSGGSTNYADSVKGRFTISRDNAKNTVYLQMNSLKPEDTAVYYCAADYTYNGLEYDYWGQGTQVTVSS | high polyreactivity
21 | QVQLVESGGGLVQAGGSLRLSCAASGSIFPRYAMGWYRQAPGKEREFVAAITGSGSSTYYADSVKGRFTISRDNAKNTVYLQMNSLKPEDTAVYYCAARKARPPFPHPFDYYWGQGTQVTVSS | low polyreactivity
22 | QVQLVESGGGLVQAGGSLRLSCAASGSTFYPYAMGWYRQAPGKERELVAAITVSGGSTYYADSVKGRFTISRDNAKNTVYLQMNSLKPEDTAVYYCAVDGDPVFYTTYYYSYYYWGQGTQVTVSS | low polyreactivity

Row | Sequence | polyreactivity (PSR sort gate)
23 | QVQIVESGGGLVQAGGRLRLSCAASGFTLYRYAMGWYRQAPGKEREFVAAITRTGGTTYYADSVKGRFTISRDNAKNTVYLQMNSLKPEDTAVYYCAAGANAWYSYRYDYWGQGTQVTVSS | high polyreactivity
24 | QVQRVESGGGLVQAGGSLRLSCAASGFTFESYAMGWYRQAHGKERELVAAITWDGGSTYYADSVKGRFTISRDNAKNTVYLQMNSLKPEDTAVYDCAADFGTISIDVYSWMDYWGQGTQVTGSS | low polyreactivity
25 | QVQLLESGGGLVQAGGSLRLSFAASGYIFSVNAMGWYRQAPGQERELVATIRTDGTTNYADSVNGRFTISRDNAKNTVYLKMNSLKPEDTAVYYCATDSGWSTYDYWGQGTQVTVSS | high polyreactivity
26 | QVQLVESGGALVQAGGSLRLSCAASRSIFSNAMGWYRQAPRKERELDAAITGRGGRTYYADSVKGRFTISRDNAKYTVYLQMNSLNPEDTAVYYCARDSPWSSRYRYRAFDYWGQGTQVTVSS | high polyreactivity
27 | QVQLVESGGGLVQAGGSLRLSCAASGSIFVRYTMGWYRQAPGKETELVAAISWGGGSTYYADSVKGRFTISRDNAKNSVYLQMNSLKPEDTAVYYCNKRYIQLYDYWGQGTKVTVSS | low polyreactivity
28 | QVQLVDSGGGLVQAGGSLRLSCAASGSIFPPYAMGWYRQAPGKERELVARISWSTSSTNYADSVKGRFTISRDNAKNTVYLQMNSLKPEVTAVYYCAADYYVFPGYDYWGQGTQVTVSS | high polyreactivity
29 | QVQLVESGGGLVQARGSLRLSCAASGSTFPYVMGWYRQAPWKERELVAAISQRTGSTYYADSVKGRFTISRDNAKNTVYLQMNSLNPEDTAVYYCAKPGYLRPSRYDYWGQGTQVTVSS | high polyreactivity
30 | QVQHVESGGGLVQAGGSLRLSCAASGSIIRGNCMGWYRQAPGKERELVAAISRSGGRTYYADSVKGRFTFSRDNAKNTVYLQMNSLKPEDTAVYYFAKDRSGSYYNFPEYDYWGQGTQVTVSS | high polyreactivity
31 | QVQLVESGGGLVQAGGSLRLSCAASGSTFKAYAMGWYRQAPGKEMELVAVITADGSTSTHYADSVKGRFTISRDNAKNTVSLQMNSLNPEDTAVYYCAAGSPYYSERYYYWGQGTQVTVSS | low polyreactivity
32 | QVQLVESGGGLVQAGGSLRLSCAASGRIFWYYTMGWYRQAPGKERELVAAISNGGSTYYADSVKGRFTISRDNAKNPVYLQMNSLKPEDTAVYYCAADNFRNPDYYYWGQGTQVTVSS | high polyreactivity
33 | QVQLVESGGGLVQAGGILRLSCPASGSIIVFYAMGWYRQAPGKEREIVATITWSGTSTYYADSVKGRFTISRDYAKNTVYLQKNSLKPEDTAVYYCNARTVKASYVGYNYWGQGTQVTVSS | high polyreactivity
34 | QVQLEESGGGLVQAGGSLRLSCAASGRTFGRNAMGWYRQAPGERELVAVISRGGSTYYADSVKGRFTISRDNAKNSVYLQMNSLIPEDTAVYYCNADTVYTRTAPYDYWGQGTQVTVSS | low polyreactivity
35 | QVQLVESGGGLVQAGGSLRLSCAASGRTFTRYAMGWYRQSPGKERELVAAISTSGDSTYYADSVKGRFTISRDNAKNTVYLQMNSLKPVDTAVYYCNTYWTSEYDYWGQGTQVTVSW | low polyreactivity
36 | QVQLVESGGGLVQAGGSLRLSCAASGLIFIDYAIGWYRQAPGKERELVAAITRGGARTYYADSVKGRFTISRDNAKNTVYLEMNSLKPEDTAVYYCAADRPGSRYIDVDYWGQGTQVTVSS | high polyreactivity
37 | QVQLVESGGGLVQAGGSLRLSCAASGGTFYYYAMGWSRQAPGKERELVAAISWSGVSTSYADSVKGRFTISRDNANNTVYLQMNSLKPEDTAVYYCAAGPFYYTGYEGVYWGQGTQVTVSS | high polyreactivity
38 | QLQLVESGGGLVQAGRRLRLTCAASGSIFQGNVMGWYRQAPGKERELVAAITWSGGRTYYADSVKGRFTISRDHAKNTVYLQMNSMNPDDTAVYYCNAVIGRELDYWGQGTKVTVSS | high polyreactivity
39 | QVQLVESGGGLVQAGGSLRLSCAASGLIFSPYAMGWYRQAPGKERELVATISVSGGDTYYADSVKGRFTISRDNAKNTVYLQMNSLIPDDTAVYYCAADSFYRYYWGQGTHVTVSS | high polyreactivity
40 | HVQLVESGGGLVQAGGSLRLSCAASGSIYGGNTMGWYRQAPGKERELVAAISRSGGSTYYADSVKGRFTISRDNAKNTVYLQMNSLKREDTAVYYCKRKQAGHGQGYDYWGQGTQVTVSS | high polyreactivity
41 | QVQLVESGGGLVQAGGSLRLSCAASGRIFASYAMGWYRQAPGKERELVAAISLSGGSTYYADSVKGRFTISRDNAKNTVYLLMNSLKPEDNAVYYCNRLSNNREYVYWGQGTQLTVSS | high polyreactivity
42 | QVQLVESGGGLDQAGGSLRLSCAASGITFDYYAIGWYRQAPGKERELVAAISRAGSTNYADSVKGRFTISRDNAKNTVYLQMNSLKPEDTAVYYCNNGYHSWSRLSQFGWSYDYWGQGTQVTVSS | high polyreactivity
43 | QVQLVESGGGLVQAGGSLRLSCAASGRILRYNAMGWYRQAAGKERELVAAISSGGSTYADSVKGRFTISRDNAKNTVYLQMNSLKPDDTAVYYCNAPSVGAAFDYWGQGTQVTVSS | high polyreactivity
